Holding throughout (settings): protein: recombinant; tags: His; label: 5'-32P; blunt
One data set has as its target T1, Orc1-2 ΔN (Saccharolobus islandicus REY15A, UniProt F0NF18 299-413).
T1 sequence: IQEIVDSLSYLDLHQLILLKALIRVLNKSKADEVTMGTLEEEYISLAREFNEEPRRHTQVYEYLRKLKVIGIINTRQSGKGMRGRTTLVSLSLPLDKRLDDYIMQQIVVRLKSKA
Description: EMSA; large complexes, distributive; two distinct complexes at lowest protein concentration; EMSA: 20 mM HEPES pH 7.6, 10 mM (NH4)2SO4, 1 mM DTT, 0.2% Tween-20, 30 mM KCl, 40 °C 20 min, 2 nM probe; 8% native PAGE in 40 mM Tris, 20 mM boric acid.

Another data set deals with T2, Orc1-2 WB (Saccharolobus islandicus REY15A, UniProt F0NF18 1-413, E154A).
T2 sequence: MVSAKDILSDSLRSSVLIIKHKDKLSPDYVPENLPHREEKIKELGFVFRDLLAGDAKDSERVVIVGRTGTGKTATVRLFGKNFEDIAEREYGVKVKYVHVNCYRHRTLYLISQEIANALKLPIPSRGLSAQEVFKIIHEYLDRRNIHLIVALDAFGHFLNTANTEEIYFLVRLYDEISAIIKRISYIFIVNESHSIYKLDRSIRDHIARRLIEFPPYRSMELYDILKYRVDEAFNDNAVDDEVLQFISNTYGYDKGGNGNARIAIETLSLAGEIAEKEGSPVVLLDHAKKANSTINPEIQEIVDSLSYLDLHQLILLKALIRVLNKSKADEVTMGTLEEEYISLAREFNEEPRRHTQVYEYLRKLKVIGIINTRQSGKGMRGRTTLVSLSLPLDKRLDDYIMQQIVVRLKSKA
Description: EMSA; similar or stronger than WT; EMSA: 20 mM HEPES pH 7.6, 10 mM (NH4)2SO4, 1 mM DTT, 0.2% Tween-20, 30 mM KCl, 40 °C 20 min, 2 nM probe; 8% native PAGE in 40 mM Tris, 20 mM boric acid.

A further data set has as its target T3, Orc1-2 ΔC (Saccharolobus islandicus REY15A, UniProt F0NF18 1-298).
T3 sequence: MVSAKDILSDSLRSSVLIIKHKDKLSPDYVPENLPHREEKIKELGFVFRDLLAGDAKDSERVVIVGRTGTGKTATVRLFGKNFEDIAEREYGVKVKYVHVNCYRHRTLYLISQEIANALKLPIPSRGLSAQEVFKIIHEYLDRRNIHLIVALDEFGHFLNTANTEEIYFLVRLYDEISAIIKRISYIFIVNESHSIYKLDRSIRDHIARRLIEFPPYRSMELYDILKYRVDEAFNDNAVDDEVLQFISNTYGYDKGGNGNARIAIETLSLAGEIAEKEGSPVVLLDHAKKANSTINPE
As to the kind of experiment: EMSA; EMSA: 20 mM HEPES pH 7.6, 10 mM (NH4)2SO4, 1 mM DTT, 0.2% Tween-20, 30 mM KCl, 40 °C 20 min, 2 nM probe; 8% native PAGE in 40 mM Tris, 20 mM boric acid. In general terms: In EMSA bound probe runs differently from free probe, usually more slowly.

Another data set concerns the target T4, Orc1-2 wH (Saccharolobus islandicus REY15A, UniProt F0NF18 1-413, R353A;R354A;R381A;R383A).
T4 sequence: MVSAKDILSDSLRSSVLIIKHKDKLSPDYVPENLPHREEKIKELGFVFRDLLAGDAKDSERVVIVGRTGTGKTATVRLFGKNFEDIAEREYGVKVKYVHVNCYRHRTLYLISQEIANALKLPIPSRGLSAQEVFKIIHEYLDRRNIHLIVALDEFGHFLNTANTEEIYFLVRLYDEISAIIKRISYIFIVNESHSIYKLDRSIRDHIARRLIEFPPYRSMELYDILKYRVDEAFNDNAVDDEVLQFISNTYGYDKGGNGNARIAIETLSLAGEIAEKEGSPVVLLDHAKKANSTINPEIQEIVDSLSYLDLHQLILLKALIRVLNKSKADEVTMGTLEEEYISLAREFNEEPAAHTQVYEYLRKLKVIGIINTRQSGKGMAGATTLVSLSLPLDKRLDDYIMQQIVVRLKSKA
The data set is described as above.

Data set [1] concerns the target T5, Orc1-2 WT (Saccharolobus islandicus REY15A, UniProt F0NF18 1-413).
T5 sequence: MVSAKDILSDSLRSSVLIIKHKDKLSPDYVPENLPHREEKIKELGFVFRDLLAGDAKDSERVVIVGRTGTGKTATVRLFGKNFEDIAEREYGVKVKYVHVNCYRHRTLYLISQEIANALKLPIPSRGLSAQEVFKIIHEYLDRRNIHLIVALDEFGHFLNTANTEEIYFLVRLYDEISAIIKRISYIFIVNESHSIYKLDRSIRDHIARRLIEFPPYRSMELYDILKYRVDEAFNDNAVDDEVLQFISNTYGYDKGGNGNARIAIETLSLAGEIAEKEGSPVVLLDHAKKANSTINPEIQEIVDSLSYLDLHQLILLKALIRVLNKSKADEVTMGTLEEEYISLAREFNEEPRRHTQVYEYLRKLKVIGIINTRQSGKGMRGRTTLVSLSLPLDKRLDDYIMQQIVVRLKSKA
The data set is described as above.

The target in data set [2] is T5, Orc1-2 WT. Description: EMSA; 25 nM protein, unlabeled specific competitor; affinity very similar to PupsE; EMSA: 20 mM HEPES pH 7.6, 10 mM (NH4)2SO4, 1 mM DTT, 0.2% Tween-20, 30 mM KCl, 40 °C 20 min, 2 nM probe; 8% native PAGE in 40 mM Tris, 20 mM boric acid.

B1: PupsE (dsDNA)
DNA 1: CTATAAAGGAAGTTTTAAGTAATTTCGGTATTGTGTGAGTATATTT
DNA 2: AAATATACTCACACAATACCGAAATTACTTAAAACTTCCTTTATAG
As for B1, the binding result with Orc1-2 ΔN was “binds”; with Orc1-2 WB, “binds”; with Orc1-2 ΔC, “no binding”; in the data set with Orc1-2 wH it was “no binding”; with Orc1-2 WT [1], “binds”.

B2: Porc1-2 (dsDNA)
DNA 1: TTTGAGAAAGAATCAAGAAAAGTTTCGGACTACTCTCTTAGATAAA
DNA 2: TTTATCTAAGAGAGTAGTCCGAAACTTTTCTTGATTCTTTCTCAAA
Take B2: the binding result in the data set with Orc1-2 WT [2] was “binds”.
